Laboratory results as given in publication PMC5844954.

B1: human GFP-Insc^ASYM-ΔαB (Insc^ASYM lacking residues 62-191) (domain or fragment)
chain: MMALPGGRHLDSVTLPGQRLHLMQVDSVQRWMEDLKLMTECECMCVLQAKPISLEEDAQGDVQALVRKIDASDNIYTTESTTGNLFSLTQEGAPLCRIIAKEGGVVALFKVCRQDSFRCLYPQALRTLASICCVEEGVHQLEKVDGVLCLADILTDNSHSEATRAEAAAVVAQVTSPHLPVTQHLSS
B2: human 6His-tagged full-length Insc (residues 1-532) (natural protein)
chain: MMALPGGRHLDSVTLPGQRLHLMQVDSVQRWMEDLKLMTECECMCVLQAKPISLEEDAQGDLILAGGPGPGDPLQLLLKRGWVISTELRRIGQKLAQDRWARVHSMSVRLTCHARSMVSEYSAVSRNSLKEMGEIEKLLMEKCSELSAVTERCLQVENEHVLKSMKACVSETLSMLGQHFGQLLELALTREVQALVRKIDASDNIYTTESTTGNLFSLTQEGAPLCRIIAKEGGVVALFKVCRQDSFRCLYPQALRTLASICCVEEGVHQLEKVDGVLCLADILTDNSHSEATRAEAAAVVAQVTSPHLPVTQHLSSFLESMEEIVTALVKLCQEASSGEVFLLASAALANITFFDTMACEMLLQLNAIRVLLEACSDKQRVDTPYTRDQIVTILANMSVLEQCASDIIQENGVQLIMGMLSEKPRSGTPAEVAACERVQQKAAVTLARLSRDPDVAREAVRLSCMSRLIELCRSPSERNSSDAVLVACLAALRRLAGVCPEGLQDSDFQQLVQPRLVDSFLLCSNMEESFV

Assays:
[1] = target: human LGN TPR domain, residues 1-350, FLAG-tagged (and a GFP-tagged copy) (human); experiment: co-IP; HEK293T co-transfected with FLAG-LGN^TPR, GFP-LGN^TPR and GFP-Insc^ASYM-ΔαB; anti-FLAG M2 sepharose beads, modified JS buffer, 1 h at 4 °C
[2] = target: human LGN TPR domain, fragment 15-350 (human); experiment: SEC; purified co-expressed complexes on a size-exclusion column with globular markers, Coomassie SDS-PAGE of peak fractions

Chain of human LGN TPR domain, residues 1-350, FLAG-tagged (and a GFP-tagged copy) (human) (P81274 1-350): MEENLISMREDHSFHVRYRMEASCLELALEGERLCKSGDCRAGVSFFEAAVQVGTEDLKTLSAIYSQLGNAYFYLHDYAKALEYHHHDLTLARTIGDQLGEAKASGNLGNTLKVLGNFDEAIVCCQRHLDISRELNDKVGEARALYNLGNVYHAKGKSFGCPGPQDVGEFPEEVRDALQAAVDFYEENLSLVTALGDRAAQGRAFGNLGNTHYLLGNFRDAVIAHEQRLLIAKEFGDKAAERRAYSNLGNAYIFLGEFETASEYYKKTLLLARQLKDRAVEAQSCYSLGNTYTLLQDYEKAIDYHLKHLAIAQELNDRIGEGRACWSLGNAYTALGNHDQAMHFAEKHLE

Binder | stoichiometry N (Insc per LGN (1:1)) [1] | stoichiometry N (Insc per LGN (2:2)) [2]
B1 | 1 | 
B2 |  | 1
